Results on one substance are retold here after paper PMC4402133.

What all share (test): native gel or EMSA
For assay [1], the target named is pPL^45-Zn-163 nascent chain (bovine | S. cerevisiae) (UniProt P01239).
For assay [2], the target named is pPL-163 nascent chain (bovine) (UniProt P01239).
Assay [3] concerns the target pPL-223 nascent chain (bovine) (UniProt P01239).
In assay [4] the target is pPL-188 nascent chain (bovine) (UniProt P01239).

For “RAMP complex C (~500 kD Sec61/62/63 complex) (from UniProt P38377 1-476; P82009 1-39; P82008 1-33; Q05052 33-445)”, the percent of nascent chains retained in complex C after 1 hour at 24°C in assay [1] stood at 95%; in assay [2], 88%. Besides, the percent of nascent chains in complex C in assay [2] was determined as 2%; in assay [3] it was 5%; in assay [4], 2%.
